{"source": "paper PMC3059804", "test_in_all_cases": "enzyme inhibition kinetics", "key": {"[1]": {"target": "human LSD1-CoREST complex (LSD1 residues 171-836 with CoREST residues 308-440) (human) (UniProt O60341)"}, "[2]": {"target": "human LSD1-CoREST complex (LSD1 residues 171-836 with CoREST residues 308-440) (human) (UniProt O60341)", "remark": "listed apart in the source"}, "[3]": {"target": "recombinant mouse LSD2 (mouse) (UniProt Q8CIG3)"}, "[4]": {"target": "human LSD1-CoREST complex (LSD1 residues 171-836 with CoREST residues 308-440) (human) (UniProt O60341)", "remark": "listed apart in the source"}}, "note": "Like-named read-outs stand apart in the source and are kept apart here."}
{"substance": "20-residue peptide corresponding to the N-terminal residues of human SNAIL1", "values": [{"measurement": "Ki", "setting": "[1]", "value": 220, "unit": "µM"}, {"measurement": "Ki", "setting": "[2]", "value": 210, "unit": "µM"}, {"measurement": "Ki", "setting": "[3]", "value": 2.22, "unit": "µM"}, {"measurement": "Ki", "setting": "[4]", "value": 0.2, "unit": "µM"}]}
